Source: IntAct's records for PubMed 18786395

B1: FH1/FH2 domain-containing protein 1 (Homo sapiens), Q9Y613 (parent)
chain: MAGGEDRGDGEPVSVVTVRVQYLEDTDPFACANFPEPRRAPTCSLDGALPLGAQIPAVHRLLGAPLKLEDCALQVSPSGYYLDTELSLEEQREMLEGFYEEISKGRKPTLILRTQLSVRVNAILEKLYSSSGPELRRSLFSLKQIFQEDKDLVPEFVHSEGLSCLIRVGAAADHNYQSYILRALGQLMLFVDGMLGVVAHSDTIQWLYTLCASLSRLVVKTALKLLLVFVEYSENNAPLFIRAVNSVASTTGAPPWANLVSILEEKNGADPELLVYTVTLINKTLAALPDQDSFYDVTDALEQQGMEALVQRHLGTAGTDVDLRTQLVLYENALKLEDGDIEEAPGAGGRRERRKPSSEEGKRSRRSLEGGGCPARAPEPGPTGPASPVGPTSSTGPALLTGPASSPVGPPSGLQASVNLFPTISVAPSADTSSERSIYKARFLENVAAAETEKQVALAQGRAETLAGAMPNEAGGHPDARQLWDSPETAPAARTPQSPAPCVLLRAQRSLAPEPKEPLIPASPKAEPIWELPTRAPRLSIGDLDFSDLGEDEDQDMLNVESVEAGKDIPAPSPPLPLLSGVPPPPPLPPPPPIKGPFPPPPPLPLAAPLPHSVPDSSALPTKRKTVKLFWRELKLAGGHGVSASRFGPCATLWASLDPVSVDTARLEHLFESRAKEVLPSKKAGEGRRTMTTVLDPKRSNAINIGLTTLPPVHVIKAALLNFDEFAVSKDGIEKLLTMMPTEEERQKIEEAQLANPDIPLGPAENFLMTLASIGGLAARLQLWAFKLDYDSMEREIAEPLFDLKVGMEQLVQNATFRCILATLLAVGNFLNGSQSSGFELSYLEKVSEVKDTVRRQSLLHHLCSLVLQTRPESSDLYSEIPALTRCAKVDFEQLTENLGQLERRSRAAEESLRSLAKHELAPALRARLTHFLDQCARRVAMLRIVHRRVCNRFHAFLLYLGYTPQAAREVRIMQFCHTLREFALEYRTCRERVLQQQQKQATYRERNKTRGRMITETEKFSGVAGEAPSNPSVPVAVSSGPGRGDADSHASMKSLLTSRPEDTTHNRRSRGMVQSSSPIMPTVGPSTASPEEPPGSSLPSDTSDEIMDLLVQSVTKSSPRALAARERKRSRGNRKSLRRTLKSGLGDDLVQALGLSKGPGLEV

Variants of: B1
Conditions: with rash_human HRAS

| Variant | effect of a mutation on the interaction |
| --- | --- |
| P41K | increasing interaction |
